# Results taken from the DeepSol protein solubility set.
# Assay: soluble on expression in E. coli; label from the status in PepcDB or PDB records
row,Sequence,soluble on expression in E. coli
1,MFKRIGLISIALSLNTISFTSEACSALVFNKNKPATVAVNLDWKYREGAFVIHPRNAMMVSSVDYHSMHPLIWKSQYGSVIFHGGNRFKAGPSADGMNEKGLTASILMLDSSIYPSNSELPALKTTEWVQYILDNFQTVQEVIDDSSNYQLVADTYRGITMNVHLMVSDAEGKSAVFEYLDGKLVIHTQDNLTTPVLTNTDYKLSLALLEEYQDHGGSKALPGGYDSKSRFVRAAHYLKKLPSFIAKEEHIAYAFNGLNVVTQAPGTSSPTQLSMVFDIPTKTIYFRSINEAALRVIPMDSIDFDYLYQPIALNVYQHLSGDVTDKFQPMIG,not soluble
2,GPGSMTDFPKLNRIKSDDENMEKIHVAARKGQTDEVRRLIETGVSPTIQNRFGCTALHLACKFGCVDTAKYLASVGEVHSLWHGQKPIHLAVMANKTDLVVALVEGAKERGQMPESLLNECDEREVNEIGSHVKHCKGQTALHWCVGLGPEYLEMIKILVQLGASPTAKDKADETPLMRAMEFRNREALDLMMDTVPSKSSLRLDYANKQGNSHLHWAILINWEDVAMRFVEMGIDVNMEDNEHTVPLYLSVRAAMVLLTKELLQKTDVFLIQACPYHNGTTVLPDRVVWLDFVPAAADPSKQEVLQLLQEKLDEVVRSLNTGAGGAVKRKKKAAPAVKRMKLAPSAPVRTRSRSRARSSAVSK,soluble
3,MKSADLIIIGGGMVGLALAGLLKDSPCQIKIIEKSAPKTQKYYANRVSAINTASEKMLQQLGVFEHIPTDAYTDYQKIIVSEKDSFAKIEFDNNDLAIKQLGLTQLGLIIANSQLQQALWQQVSQQKNVEIILSTPKTIGISESGAFLTLENGEMLAGKLVVGADGAHSWLRNQINIPLISQDYQQTALVCCVETAEPHNNIARQIFGPDSILAFLPLADKNQCSIVWSLPPDQANKLTTCDEQQFNQALTIAFDYQLGLVKLQDSRKIYPLTARYARDFAQMRIALIGDAAHTIHPLAGLGVNLGFADAITLAEQIKLHLAAAHDIGEYRHLRYFERTRKTETIKLLAAMEGLKQLFSGNNPLKKLIRGIGLVGTNHFSAIKKRLIEQVVNILEHHHHHH,soluble
4,AIFELMNEAYAPLYGFSALSQGQINQYIKMYLPIVDLRMVTLVTDAEDKLVAVGISMPSLSEALQKAKGRLLPMGWYHLLKVLFLHKYPPMLDLLLVAVKPEYQNKGVNALLFSDLIPVYQQLGFKYA,not soluble
5,GPGSMGQSIGDRLQNLVLRDEERARLLSLQNTKSILPSLAPSRRLLLVHAIMTLVVPYVTRKVQRKVLEEGWEREPVPTARYRIAKALRYAVVTWSLLSLANTFNFLMTGRYRTLVERILSLRLVYGSQRMMRFTNLLYMNQHVQWQTWMSLFSALSLGR,not soluble
6,FNSSINNIHEMEIQLKDALEKNQQWLVYDQQREVYVKGLLAKIFELEKKTETAAHSLP,soluble
7,MAHHHHHHMRFLKTLFSLNCLASVGFYKKFACKNLFFENSFIRKDLHTYFIDKRKYFHLNKKDICTNTIIIPFYKDNYSYIFYDDKEEGIVVDPADYNIINDISKKENIKIKHVLCTHKHSDHNNGNQYYYEKNINVYGIKEYDNKYINQDISNLTHFQINNFKINIFLSNFHSKNQVSYLIENDNNKSKKNIFFTGDFLFISGIGKNFEQDNEDLYNSINKLKLLDKQNIYIFCGHEYTLDNLKFALTVDSTNKNLLSFYDHVVNSNKNYPTVPTLLEHEYLYNPFLRCDQNDVRKSIDLYAKKKNIKIQQESDYIVILRLMKDNFKAS,not soluble
8,MIETLEENLEKVFKAIRSLIIEDMAKDMPMLALTLELLQSIPGIGLISAVTILAEIGDFSAFSKPGKLVAYFGIDPSVMQSGEFTGTQNKMSKRGSRLLRRVLFTIALANIRTKRDKTACNPVLMEYYKNKCQSKPKKVALGAVMRKLVNYIFAVLRDRKPYELRSPQEHAQMLAAKHTAA,not soluble
9,MAHHHHHHMNRENLEELKILNLKNDKQPIYNFRCKHCNYVLFNDNEIIKHDFKISKIKKNYGNSCTSIFIEKKEWILTENKMKGVLNCPNCNIKLGKWSWTGICCSCGYLQIPAFMINSSNVDRMNISKTV,soluble
10,MVGCLVVLLGAARKPARIFNLTPASASRYDSIHLCSLRTSLSCH,not soluble
11,MGHHHHHHSHRNRARFAARKQLVLNLVSSPGSGKTTLLTETLMRLKDSVPCAVIEGDQQTVNDAARIRATGTPAIQVNTGKGCHLDAQMIADAAPRLPLDDNGILFIENVGNLVCPASFDLGEKHKVAVLSVTEGEDK,soluble
